Measured values: publication PMC1475855

Columns and labels:
Test in all cases: SEC; FPLC of native protein with His-tag cleaved; HiLoad-16/60 Superdex200, 1 x PBS, 4°C, 1 ml/min; column calibrated with catalase, aldolase, chymotrypsinogen A and ribonuclease A
[1] = biological target: GFP from the orange seapen Ptilosarcus gurneyi (Pt-GFP) (Ptilosarcus gurneyi)
[2] = biological target: ecliptic pHluorin (Aequorea victoria)
[3] = biological target: ratiometric pHluorin (Aequorea victoria)

“GFP from the orange seapen Ptilosarcus gurneyi (Pt-GFP) (natural protein)” gave a stoichiometry N [1] of 4.

For ecliptic pHluorin, the stoichiometry N [2] was 2.

Work on ratiometric pHluorin yielded a stoichiometry N [3] of 2.
